# ± gives the uncertainty stated by the source.
# Test: protein stability index of a GFP-peptide fusion (yeast GPS) (PSI 1-4); higher = more stable; sorted into four equal gates, so the index is relative within each strain
# Conditions: doa10∆
# In short: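 Peptides tiling yeast proteins in 17-residue segments were fused downstream of GFP, with Cherry expressed from the same plasmid. As a pooled library in yeast, mid-log cultures grown in leucine-free medium were sorted into four equal gates by GFP/Cherry fluorescence ratio. Gate plasmids were PCR-amplified and Illumina-sequenced, and barcodes linked reads to strains. Each peptide received a protein stability index equal to the sum of each gate's read frequency times its gate number.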
row,Sequence,protein stability index
1,TNTSKQFQKARNNVMLL [SRB8],2.65 ± 0.14
2,TPATIVKKPTFTFGQST [YOR098C/NUP1],2.84 ± 0.066
3,TPDANLISKPAKKNNFI [UBP6],3.12 ± 0.16
4,TPDASKPSFSFGVPNSS [YLR335W/NUP2],2.92 ± 0.088
5,TPDDDEIDVENHDRINI [RPN8],3.37 ± 0.26
6,TPGLTFNAIDLARHLPA [RPC82],2.71 ± 0.069
7,TPIAGRFTPGSFTNYIT [RPS0A],3.01 ± 0.11
8,TPLSIKIMVAEWYLSHL [SRB8],2.83 ± 0.084
9,TPSFSFGKTTANLPANS [YLR335W/NUP2],2.84 ± 0.069
10,TPSNIRSLCEVLVYDDK [RPC34],1.7 ± 0.077
11,TQAAEFLSPYISTHLKT [IRR1],1.96 ± 0.039
12,TQLQICLDQMTEQFCAT [SRB7],2.74 ± 0.063
13,TQPKATSTGTTIVGVKF [PUP1],3.48 ± 0.12
14,TQQAVNLEKNYLAKLSK [IRR1],3.06 ± 0.27
15,TQRIMTNVIAFAFWNLL [YLR018C/POM34],1.81 ± 0.069
16,TQTGQNTGPSTGGLFGA [YGL172W/NUP49],3.47 ± 0.11
17,TRAAKIAPRPLDLLRPV [RPL13A],2.95 ± 0.091
18,TRAKIGGLNDPRLGSID [RPO21],3.03 ± 0.11
19,TRGGASALIENNLFRII [YJL039C/NUP192],2.48 ± 0.048
20,TRISSQFEKSRKVSGPR [RET1],2.94 ± 0.27
21,TRLPAFERPAVKEEKED [RPC53],2.87 ± 0.25
22,TRNPDAPKGSTDPKELY [RPC40],3.11 ± 0.23
23,TRQASDLASSKEVLAKI [RPN5],2.92 ± 0.11
24,TRVNAQLESYEYMVQYI [RRI1],3.2 ± 0.059
25,TSDPVMHKQLAYILAAQ [RPN1],1.68 ± 0.15

row,Sequence,protein stability index
1,TSFDIKREGRNELQEER [POP6],3.46 ± 0.12
2,TSIEKSSEILSYLSNSL [YML103C/NUP188],2.21 ± 0.072
3,TSLITAVYGPRSIRGSF [MTR3],2.72 ± 0.073
4,TSLSSKDLSNYRKTEGI [YMR153W/NUP53],3.12 ± 0.088
5,TSLTSIKWENAFVSVYS [PRP8],2.94 ± 0.07
6,TSPFGGARPGRVARRNA [RPS9A],2.8 ± 0.15
7,TSPIDIREKVAKQALDL [SNF2],3.28 ± 0.14
8,TSQMDLARDTPSANNSS [RRP4],1.86 ± 0.042
9,TSQNPQRDAEISQPKSM [BRR2],3.27 ± 0.11
10,TSRTIVRNVKGPVREND [RPS28A],3.4 ± 0.11
11,TTALLKDEEIEKLLQQD [MED8],3.29 ± 0.13
12,TTAVEDEDDDLDEDDVN [RPB4],3.5 ± 0.11
13,TTDANGSKENYQELGSL [MED2],2.86 ± 0.097
14,TTDSLTKVLQADLPGSY [YMR129W/POM152],2.38 ± 0.082
15,TTEMLDKLMVTSIRSTP [MED6],2.27 ± 0.14
16,TTIFVKSTTPYVSALKR [POP7],1.82 ± 0.07
17,TTLHGPGFQLPNRITLT [SRB8],2.9 ± 0.099
18,TTSRFSKQVTDYYQSIY [FAS2],2.77 ± 0.056
19,TTTNTDQNNATMGEETA [SNF12],3.3 ± 0.076
20,TTVSNDLENSPLKTELE [SSN2],3.05 ± 0.13
21,TVAVMSYSGYDIEDALV [RET1],2.7 ± 0.16
22,TVDVSSPTENGVFDPAS [RPL22A],3.06 ± 0.054
23,TVHKTFEGNVATKAING [PRP8],2.85 ± 0.08
24,TVIEGVKEESQPDENTK [SWI3],3.13 ± 0.17
25,TVIRGNSIISLEALDAI [SMX2],2.79 ± 0.075

row,Sequence,protein stability index
1,TVLFFIGVRCYEAYPNT [FAS1],1.21 ± 0.054
2,TVNHSEKFPNDVKLLNP [RPP1],2.79 ± 0.05
3,TVPRIVQLLSKSHNAHV [RPN2],1.91 ± 0.056
4,TVQNEILGDLGKEFGTT [FAS2],3.03 ± 0.2
5,TVQYVRFFWKRSTNKKS [UBP6],1.65 ± 0.054
6,TVSILQESSSLRLLEVT [POP8],2.2 ± 0.055
7,TVTLNKNREVVQVSKAG [RRP45],2.8 ± 0.092
8,TVVQVYDNGQVFPSSIL [RPP0],1.19 ± 0.059
9,TYLNEVLEKDAAIVKKY [YGR119C/NUP57],3.27 ± 0.11
10,TYVEELFPIVKKHGKTD [YJL039C/NUP192],3.33 ± 0.14
11,VAATITSSQKEPFFLVT [SRB8],1.8 ± 0.071
12,VAIGNTYGFLTPNLWAE [RPS2],2.26 ± 0.073
13,VANQTSATFLRIVGSEL [RPT2],2.45 ± 0.12
14,VCAKLFGNIQKVVNFWL [RPO21],2.03 ± 0.098
15,VECTISILRKSSPEEPF [SNF12],1.27 ± 0.061
16,VEDGNILVFQVSMKANK [RPL25],2.58 ± 0.043
17,VEEDHTLGNALRYVIMK [RPC19],3.08 ± 0.11
18,VEETEVPTVPPSQSEEQ [MED4],2.73 ± 0.079
19,VEGISEVQARKSKSVSF [RPT5],3.41 ± 0.068
20,VENELLQVDVDIAGQRD [RRP42],1.36 ± 0.25
21,VEYLTRYVAGVQQRYTQ [PRE6],1.47 ± 0.065
22,VEYNLFTNRSTMMANFE [BRN1],2.11 ± 0.18
23,VFGASDKQAEGTPLFTF [YOR098C/NUP1],2.83 ± 0.074
24,VFGTIIPKISDYIEFNI [YJL039C/NUP192],2.05 ± 0.17
25,VFKTHSYRGVDLEKLLE [RPS15],3.2 ± 0.083

row,Sequence,protein stability index
1,VFPSSILDITDEELVSH [RPP0],2.89 ± 0.067
2,VFSESCSNESFASIPVS [SNU114],2.98 ± 0.061
3,VFTMKELAQYMKTNVHT [RGR1],2.66 ± 0.1
4,VFVGSGKGTGKTAMAEL [BRR2],3.29 ± 0.12
5,VFYRMQQLRRALPDVVV [RPO31],1.83 ± 0.038
6,VGKQIVNIPSFMVRLDS [RPS9A],2.59 ± 0.099
7,VGLRSNTHAVLVALKRN [PRE5],1.2 ± 0.037
8,VGLSQPDAKIQVRRDIP [YMR129W/POM152],2.98 ± 0.082
9,VGPHFKQANNFLWPFKL [RPL7A],2.71 ± 0.069
10,VGSPLTVSILQESSSLR [POP8],3.21 ± 0.078
11,VHKLRHYLVNLTSPAFG [GRR1],1.24 ± 0.04
12,VHPFHVLRINKMLSCAG [RPL10],1.11 ± 0.086
13,VHRDDPALVGKLRGDLR [SNF6],3.36 ± 0.083
14,VIDIGASGCNVTPIIDG [ARP7],2.67 ± 0.088
15,VIIRRLKTRDWIVVLPW [POP1],1.9 ± 0.072
16,VIRIPMQENDKINQERL [CSI1],2.42 ± 0.083
17,VIVTDPRLDAQAIKEAS [RPS0B],3.03 ± 0.096
18,VIYRNSLYKVSFLEKPK [YMR129W/POM152],2.49 ± 0.065
19,VKALRNVPGVETANVAS [RPL4A],2.76 ± 0.069
20,VKCEELSNTLACYRTIM [RRP40],2.24 ± 0.069
21,VKDEAFDDLLKPVYKGK [RET1],3.35 ± 0.16
22,VKDLGQGLKLAKKHKLN [SMC3],3.12 ± 0.11
23,VKEESQPDENTKEMDEV [SWI3],3.3 ± 0.19
24,VKGDLLQEAIDFAQKEI [PRE10],2.9 ± 0.076

# Same assay, conditions: pdr5∆
row,Sequence,protein stability index
1,TNTSKQFQKARNNVMLL [SRB8],3 ± 0.066
